Experimental data taken from publication PMC6695210, “Bipartite interface of the measles virus phosphoprotein X domain with the large polymerase protein regulates viral polymerase dynamics” (PLoS Pathogens, 2019).

B1: MeV phosphoprotein (P), wild type [measles virus (strain IC-B)] / MeV L_(1708), C-terminally truncated large polymerase protein lacking the methyltransferase domain [measles virus (strain IC-B)] (parent complex)
chain 1: MAEEQARHVKNGLECIRALKAEPIGSLAVEEAMAAWSEISDNPGQDRATCKEEEAGSSGLSKPCLSAIGSTEGGAPRIRGQGSGESDDDAETLGIPSRNLQASSTGLQCYHVYDHSGEAVKGIQDADSIMVQSGLDGDSTLSGGDDESENSDVDIGEPDTEGYAITDRGSAPISMGFRASDVETAEGGEIHELLKLQSRGNNFPKLGKTLNVPPPPNPSRASTSETPIKKGTDARLASFGTEIASLLTGGATQCARKSPSEPSGPGAPAGNVPECVSNAALIQEWTPESGTTISPRSQNNEEGGDYYDDELFSDVQDIKTALAKIHEDNQKIISKLESLLLLKGEVESIKKQINRQNISISTLEGHLSSIMIAIPGLGKDPNDPTADVELNPDLKPIIGRDSGRALAEVLKKPVASRQLQGMTNGRTSSRGQLLKEFQLKPIGKKVSSAVGFVPDTGPASRSVIRSIIKSSRLEEDRKRYLMTLLDDIKGANDLAKFHQMLMKIIMK
chain 2: MDSLSVNQILYPEVHLDSPIVTNKIVAILEYARVPHAYSLEDPTLCQNIKHRLKNGFSNQMIINNVEVGNVIKSKLRSYPAHSHIPYPNCNQDLFNIEDKESTRKIRELLKKGNSLYSKVSDKVFQCLRDTNSRLGLGSELREDIKEKIINLGVYMHSSQWFEPFLFWFTVKTEMRSVIKSQTHTCHRRRHTPVFFTGSSVELLISRDLVAIISKESQHVYYLTFELVLMYCDVIEGRLMTETAMTIDARYAELLGRVRYMWKLIDGFFPALGNPTYQIVAMLEPLSLAYLQLRDITVELRGAFLNHCFTEIHDVLDQNGFSDEGTYHELIEALDYIFITDDIHLTGEIFSFFRSFGHPRLEAVTAAENVRKYMNQPKVIVYETLMKGHAIFCGIIINGYRDRHGGSWPPLTLPLHAADTIRNAQASGEGLTHEQCVDNWKSFAGVRFGCFMPLSLDSDLTMYLKDKALAALQREWDSVYPKEFLRYDPPKGTGSRRLVDVFLNDSSFDPYDMIMYVVSGAYLHDPEFNLSYSLKEKEIKETGRLFAKMTYKMRACQVIAENLISNGIGKYFKDNGMAKDEHDLTKALHTLAVSGVPKDLKESHRGGPVLKTYSRSPVHTSTRNVKAEKGFVGFPHVIRQNQDTDHPENIETYETVSAFITTDLKKYCLNWRYETISLFAQRLNEIYGLPSFFQWLHKRLETSVLYVSDPHCPPDLDAHVPLCKVPNDQIFIKYPMGGIEGYCQKLWTISTIPYLYLAAYESGVRIASLVQGDNQTIAVTKRVPSTWPYNLKKREAARVTRDYFVILRQRLHDIGHHLKANETIVSSHFFVYSKGIYYDGLLVSQSLKSIARCVFWSETIVDETRAACSNIATTMAKSIERGYDRYLAYSLNVLKVIQQILISLGFTINSTMTRDVVIPLLTNNDLLIRMALLPAPIGGMNYLNMSRLFVRNIGDPVTSSIADLKRMILASLMPEETLHQVMTQQPGDSSFLDWASDPYSANLVCVQSITRLLKNITARFVLIHSPNPMLKGLFHDDSKEEDERLAAFLMDRHIIVPRAAHEILDHSVTGARESIAGMLDTTKGLIRASMRKGGLTSRVITRLSNYDYEQFRAGMVLLTGRKRNVLIDKESCSVQLARALRSHMWARLARGRPIYGLEVPDVLESMRGHLIRRHETCVICECGSVNYGWFFVPSGCQLDDIDKETSSLRVPYIGSTTDERTDMKLAFVRAPSRSLRSAVRIATVYSWAYGDDDSSWNEAWLLARQRANVSLEELRVITPISTSTNLAHRLRDRSTQVKYSGTSLVRVARYTTISNDNLSFVISDKKVDTNFIYQQGMLLGLGVLETLFRLEKDTGSSNTVLHLHVETDCCVIPMIDHPRIPSSRKLELRAELCTNPLIYDNAPLIDRDATRLYTQSHRRHLVEFVTWSTPQLYHILAKSTALSMIDLVTKFEKDHMNEISALIGDDDINSFITEFLLIEPRLFTIYLGQCAAINWAFDVHYHRPSGKYQMGELLSSFLSRMSKGVFKVLVNALSHPKIYKKFWHCGIIEPIHGPSLDAQNLHTTVCNMVYTCYMTYLDLLLNEELEEFTFLLCESDEDVVPDRFDNIQAKHLCVLADLYCQPGTCPPIRGLRPVEKCAVLTDHIKAEARLSPAGSSWNINPIIVDHYSCSLTYLRRGSIKQIRLRVDPGFIFDALAEVNVSQPKVGSN

Variants of: B1
Test: co-immunoprecipitation (IP anti-HA of P, immunoblot of L anti-FLAG, densitometry); lysates of transiently transfected cells, lysed 24 hours after transfection; IP at 4°C; parent: 100; read off a plot

Point of comparison: chain 1 K440A, chain 1 P441A, chain 1 I442A, chain 1 G443A, percent of parent ~75 % of wild type P. Against it:
- chain 1 G431A, chain 1 Q432A, chain 1 L433A, chain 1 L434A — higher, ~85 % of wild type P
- chain 1 R404A, chain 1 L406A — lower, ~14 % of wild type P
- chain 1 D401A, chain 1 S402A, chain 1 G403A, chain 1 R404A — lower, ~19 % of wild type P
- chain 1 D383A, chain 1 P384A, chain 1 T385A — lower, ~55 % of wild type P
- chain 1 E408A, chain 1 V409A, chain 1 L410A — lower, ~30 % of wild type P
- chain 1 P396A, chain 1 I397A, chain 1 I398A, chain 1 G399A — lower, ~22 % of wild type P
- chain 1 S447A, chain 1 S448A, chain 1 V450A — higher, ~92 % of wild type P
- chain 1 L377A, chain 1 G378A, chain 1 K379A, chain 1 D380A — higher, ~78 % of wild type P

Variants of: B1
Test: as above
Remark: another data set of the same source

Point of comparison: chain 1 A491R, percent of parent ~120 % of wild type P. Against it:
- chain 1 A495R — lower, ~78 % of wild type P
- chain 1 S470R — lower, ~65 % of wild type P
- chain 1 M502R — the same, ~120 % of wild type P
- chain 1 H498E — lower, ~18 % of wild type P
- chain 1 V463R — lower, ~5 % of wild type P
- chain 1 S466R — lower, ~20 % of wild type P

Variants of: B1
Test: as above
Remark: another data set of the same source

Point of comparison: chain 1 I374A, chain 1 P375A, chain 1 G376A, chain 1 L377A, percent of parent ~9 % of wild type P. Against it:
- chain 1 S361A, chain 1 T362A, chain 1 L363A, chain 1 E364A — lower, ~3 % of wild type P
- chain 1 G365A, chain 1 H366A, chain 1 L367A, chain 1 S368A — higher, ~12 % of wild type P
- chain 1 S369A, chain 1 I370A, chain 1 M371A, chain 1 I372A — higher, ~14 % of wild type P

Variants of: B1
Test: as above
Remark: another data set of the same source

Point of comparison: chain 1 E364A, percent of parent ~44 % of wild type P. Against it:
- chain 1 L363A, chain 1 E364A — lower, ~20 % of wild type P
- chain 1 S361A — higher, ~85 % of wild type P
- chain 1 S361A, chain 1 T362A — higher, ~95 % of wild type P
- chain 1 L363A — lower, ~38 % of wild type P

Variants of: B1
Test: as above
Remark: another data set of the same source

Point of comparison: chain 1 R479E, percent of parent ~82 % of wild type P. Against it:
- chain 1 D493K — higher, ~150 % of wild type P
- chain 1 F497D — higher, ~120 % of wild type P
- chain 1 K469E — lower, ~75 % of wild type P
- chain 1 S462R — lower, ~75 % of wild type P
- chain 1 R465E — lower, ~62 % of wild type P
- chain 1 D486R — higher, ~130 % of wild type P
- chain 1 T483R — higher, ~85 % of wild type P
